From US6458932 (YEDA RESEARCH AND DEVELOPMENT, dated 2002)

Target: urinary IFNAB-BPII (human) (UniProt P48551)
Test: iRIA; control antibody (dilution 1:1) captured on goat anti-mouse F(ab)2, then 125I-IFNAB-BP

Sequence of urinary IFNAB-BPII (human) (P48551 other isoform, or with tags, fused parts or gaps): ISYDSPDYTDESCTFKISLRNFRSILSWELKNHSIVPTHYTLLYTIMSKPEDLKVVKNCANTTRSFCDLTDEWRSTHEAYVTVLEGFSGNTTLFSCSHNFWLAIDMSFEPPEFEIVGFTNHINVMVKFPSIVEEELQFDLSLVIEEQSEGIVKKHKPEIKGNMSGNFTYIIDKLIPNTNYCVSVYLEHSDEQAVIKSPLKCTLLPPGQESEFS

Control antibody showed an iRIA - CPM of 20 cpm.
